Experimental data from the supplement of paper PMC10065799, “High-throughput profiling of sequence recognition by tyrosine kinases and SH2 domains using bacterial peptide display” (eLife, 2023).

System: AncSZ
Assay: phosphorylation enrichment, bacterial display (enrichment ratio); higher = better substrate or ligand; peptides without Tyr show the background
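Note: 11-residue human phosphosite peptides and single-mutation variants displayed on the E. coli surface, counted by deep sequencing, each peptide's frequency after selection divided by its frequency in the unselected input library; frequency after pTyr selection over input frequency; kinase dosed for 20-30% of maximal phosphorylation in three min.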

**Q.** How did the phosphorylation enrichment turn out when VRFMAYTDETF [F8_Y450] was run?
**A.** 1.04

**Q.** For SVVVLYEPPEV [TP53_Y220_P219L], which phosphorylation enrichment is on record?
**A.** 1.72

**Q.** Which phosphorylation enrichment does the source give for KKLHEYNTQFQ [PIK3R1_Y452] here?
**A.** 0.55

**Q.** ALRHFYKLNII [ETV6_Y402_YF] was tested. Which phosphorylation enrichment did it give?
**A.** 0.828

**Q.** NREGVYRVFAP [TGFBI_Y537_T538R] was tested. Which phosphorylation enrichment did it give?
**A.** 0.603

**Q.** With FQCLRYIKQLG [SAMHD1_Y146_R143C] as the sequence, how does the phosphorylation enrichment read?
**A.** 0.954

**Q.** How did the phosphorylation enrichment turn out when NACGLYHKMNG [GATA5_Y216] was run?
**A.** 0.795

**Q.** Which phosphorylation enrichment does the source give for EFFENYIEELK [PARP4_Y218_F215Y_YF] here?
**A.** 1.3

**Q.** How did the phosphorylation enrichment turn out when VSLLPYFPAIM [IPO4_Y518_A513V] was run?
**A.** 1.12

**Q.** For VMAVAYRLAEQ [HK1_Y461_T457M], which phosphorylation enrichment is on record?
**A.** 0.972

**Q.** With VICRRYLVMQR [IL3RA_Y328] as the sequence, how does the phosphorylation enrichment read?
**A.** 1.24

**Q.** For SIKDKHVTALF [KCNH2_Y611_Y611H_YF], which phosphorylation enrichment is on record?
**A.** 0.576

**Q.** How did the phosphorylation enrichment turn out when LDTSQYFRLFN [CPT2_Y217_M214T] was run?
**A.** 0.824

**Q.** Which phosphorylation enrichment does the source give for AGTILSHAHLD [ASS1_Y291_Y291S] here?
**A.** 0.75

**Q.** Which phosphorylation enrichment does the source give for TNRSFYFKPSL [NUP153_Y382_V381F] here?
**A.** 0.988

**Q.** Which phosphorylation enrichment does the source give for SSFDTYHLSRE [KIR3DL2_Y253_I252T_YF] here?
**A.** 0.756

**Q.** How did the phosphorylation enrichment turn out when APSEFYDGDHD [HDAC3_Y414_N411S] was run?
**A.** 1.3

**Q.** TYAVSYLPDMS [FLNC_Y1602_T1599A] was tested. Which phosphorylation enrichment did it give?
**A.** 0.867

**Q.** With TDGIAYEFRVI as the sequence, how does the phosphorylation enrichment read?
**A.** 1.46

**Q.** With FLQEIYNSNNQ [FGG_Y140_YF] as the sequence, how does the phosphorylation enrichment read?
**A.** 1.07

**Q.** With GNLLIYTEFGK [HGD_Y166] as the sequence, how does the phosphorylation enrichment read?
**A.** 1.28

**Q.** QTENKYDSVSG [EIF2AK3_Y565] was tested. Which phosphorylation enrichment did it give?
**A.** 0.865

**Q.** How did the phosphorylation enrichment turn out when VVPGSYDRLRV [IFT172_Y260_L257P] was run?
**A.** 0.496

**Q.** With RAILDYIASKF [GSTA3_Y74_N73D_YF] as the sequence, how does the phosphorylation enrichment read?
**A.** 0.674

**Q.** With VRTGIYHGREP [PIK3CA_Y361_G364R] as the sequence, how does the phosphorylation enrichment read?
**A.** 0.478

**Q.** How did the phosphorylation enrichment turn out when WDSSGYWTPEE [PAPPA2_Y908_C903W] was run?
**A.** 1.41

**Q.** For EWLRRYLKNGK [HLA-C_Y195_E197K], which phosphorylation enrichment is on record?
**A.** 0.68

**Q.** With LANNEYFFRVC as the sequence, how does the phosphorylation enrichment read?
**A.** 1.23

**Q.** With FDSPFYRDSLP [TSC1_Y508] as the sequence, how does the phosphorylation enrichment read?
**A.** 0.703

**Q.** Which phosphorylation enrichment does the source give for HNLYSYPTKYE [MYO3A_Y1396_H1400Y] here?
**A.** 2.65

**Q.** How did the phosphorylation enrichment turn out when GTAPSYGNPSS [CD19_Y378] was run?
**A.** 0.517

**Q.** With SVTCTGSPALN [TP53_Y126_Y126G] as the sequence, how does the phosphorylation enrichment read?
**A.** 0.792

**Q.** AEPHTYEEPGR [EPHA8_Y616] was tested. Which phosphorylation enrichment did it give?
**A.** 1.08

Target: EPHB1 (UniProt P54762)
Assay: as above

EPHB1, sequence (P54762 whole entry, looked up): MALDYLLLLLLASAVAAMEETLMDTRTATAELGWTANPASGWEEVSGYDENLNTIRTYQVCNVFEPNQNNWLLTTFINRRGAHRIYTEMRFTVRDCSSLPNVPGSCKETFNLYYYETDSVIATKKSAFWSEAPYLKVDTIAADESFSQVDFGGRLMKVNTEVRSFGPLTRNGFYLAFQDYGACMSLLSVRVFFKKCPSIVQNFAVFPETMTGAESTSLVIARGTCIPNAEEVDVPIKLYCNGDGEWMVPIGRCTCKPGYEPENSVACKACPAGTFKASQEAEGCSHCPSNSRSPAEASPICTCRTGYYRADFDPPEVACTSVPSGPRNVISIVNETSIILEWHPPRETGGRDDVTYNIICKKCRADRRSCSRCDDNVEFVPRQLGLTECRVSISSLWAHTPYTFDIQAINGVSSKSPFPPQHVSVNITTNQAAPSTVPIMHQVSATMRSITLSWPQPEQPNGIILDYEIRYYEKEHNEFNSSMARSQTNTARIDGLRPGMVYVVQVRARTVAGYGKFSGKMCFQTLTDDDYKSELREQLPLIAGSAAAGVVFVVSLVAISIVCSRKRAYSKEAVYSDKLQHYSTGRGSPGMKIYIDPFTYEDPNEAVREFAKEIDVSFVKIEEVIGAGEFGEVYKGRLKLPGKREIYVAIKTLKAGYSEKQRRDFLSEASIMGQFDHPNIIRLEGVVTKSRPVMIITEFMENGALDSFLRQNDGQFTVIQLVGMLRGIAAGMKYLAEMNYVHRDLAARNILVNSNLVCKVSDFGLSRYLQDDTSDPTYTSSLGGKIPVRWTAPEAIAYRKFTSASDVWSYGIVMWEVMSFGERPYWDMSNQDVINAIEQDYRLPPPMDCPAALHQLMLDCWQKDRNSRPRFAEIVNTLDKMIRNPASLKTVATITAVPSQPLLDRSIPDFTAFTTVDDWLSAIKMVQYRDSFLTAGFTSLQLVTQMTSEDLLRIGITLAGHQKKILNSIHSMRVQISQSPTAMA

**Q.** With VRFMAYTDETF [F8_Y450] as the sequence, how does the phosphorylation enrichment read?
**A.** 0.657

**Q.** SVVVLYEPPEV [TP53_Y220_P219L] was tested. Which phosphorylation enrichment did it give?
**A.** 4.88

**Q.** Which phosphorylation enrichment does the source give for KKLHEYNTQFQ [PIK3R1_Y452] here?
**A.** 0.323

**Q.** Which phosphorylation enrichment does the source give for ALRHFYKLNII [ETV6_Y402_YF] here?
**A.** 0.522

**Q.** How did the phosphorylation enrichment turn out when NREGVYRVFAP [TGFBI_Y537_T538R] was run?
**A.** 0.364

**Q.** For FQCLRYIKQLG [SAMHD1_Y146_R143C], which phosphorylation enrichment is on record?
**A.** 0.468

**Q.** With NACGLYHKMNG [GATA5_Y216] as the sequence, how does the phosphorylation enrichment read?
**A.** 0.508

**Q.** EFFENYIEELK [PARP4_Y218_F215Y_YF] was tested. Which phosphorylation enrichment did it give?
**A.** 0.617

**Q.** With VSLLPYFPAIM [IPO4_Y518_A513V] as the sequence, how does the phosphorylation enrichment read?
**A.** 0.646

**Q.** For VMAVAYRLAEQ [HK1_Y461_T457M], which phosphorylation enrichment is on record?
**A.** 0.619

**Q.** For VICRRYLVMQR [IL3RA_Y328], which phosphorylation enrichment is on record?
**A.** 0.456

**Q.** Which phosphorylation enrichment does the source give for SIKDKHVTALF [KCNH2_Y611_Y611H_YF] here?
**A.** 0.354

**Q.** With LDTSQYFRLFN [CPT2_Y217_M214T] as the sequence, how does the phosphorylation enrichment read?
**A.** 0.673

**Q.** For AGTILSHAHLD [ASS1_Y291_Y291S], which phosphorylation enrichment is on record?
**A.** 0.788

**Q.** How did the phosphorylation enrichment turn out when TNRSFYFKPSL [NUP153_Y382_V381F] was run?
**A.** 0.646

**Q.** SSFDTYHLSRE [KIR3DL2_Y253_I252T_YF] was tested. Which phosphorylation enrichment did it give?
**A.** 0.528

**Q.** APSEFYDGDHD [HDAC3_Y414_N411S] was tested. Which phosphorylation enrichment did it give?
**A.** 0.659

**Q.** Which phosphorylation enrichment does the source give for TYAVSYLPDMS [FLNC_Y1602_T1599A] here?
**A.** 0.559

**Q.** Which phosphorylation enrichment does the source give for TDGIAYEFRVI here?
**A.** 0.659

**Q.** FLQEIYNSNNQ [FGG_Y140_YF] was tested. Which phosphorylation enrichment did it give?
**A.** 0.79

**Q.** With GNLLIYTEFGK [HGD_Y166] as the sequence, how does the phosphorylation enrichment read?
**A.** 1.81

**Q.** Which phosphorylation enrichment does the source give for QTENKYDSVSG [EIF2AK3_Y565] here?
**A.** 0.407

**Q.** VVPGSYDRLRV [IFT172_Y260_L257P] was tested. Which phosphorylation enrichment did it give?
**A.** 0.353

**Q.** With RAILDYIASKF [GSTA3_Y74_N73D_YF] as the sequence, how does the phosphorylation enrichment read?
**A.** 0.479

**Q.** With VRTGIYHGREP [PIK3CA_Y361_G364R] as the sequence, how does the phosphorylation enrichment read?
**A.** 0.302

**Q.** How did the phosphorylation enrichment turn out when WDSSGYWTPEE [PAPPA2_Y908_C903W] was run?
**A.** 0.521

**Q.** For EWLRRYLKNGK [HLA-C_Y195_E197K], which phosphorylation enrichment is on record?
**A.** 0.373

**Q.** For LANNEYFFRVC, which phosphorylation enrichment is on record?
**A.** 0.733

**Q.** For FDSPFYRDSLP [TSC1_Y508], which phosphorylation enrichment is on record?
**A.** 0.314

**Q.** How did the phosphorylation enrichment turn out when HNLYSYPTKYE [MYO3A_Y1396_H1400Y] was run?
**A.** 10.6

**Q.** Which phosphorylation enrichment does the source give for GTAPSYGNPSS [CD19_Y378] here?
**A.** 0.407

**Q.** With SVTCTGSPALN [TP53_Y126_Y126G] as the sequence, how does the phosphorylation enrichment read?
**A.** 0.539

**Q.** AEPHTYEEPGR [EPHA8_Y616] was tested. Which phosphorylation enrichment did it give?
**A.** 0.511
